Data as given in US20040014055A1.

Assays:
[1] = target: chimera EGF-R/ERBB2 (HER 1/2) (Homo sapiens (Human)) (UniProt P00533)
[2] = target: HER1/2 VA (Homo sapiens (Human)) (UniProt P00533)

- basolateral localisation of the receptor on MDCK transfectants (biotinylation of the cell surface, autoradiography) (% basolateral) [1]: 83
- basolateral localisation of the receptor on MDCK transfectants (biotinylation of the cell surface, autoradiography) (% basolateral) [2]: 53
Substance: Erbin of the MDCK cells
